Tests used:
[1] = test system: T1, SF370.1 serine recombinase (SF370.1-HA-NLS) (Streptococcus pyogenes phage 370.1); experiment: cell_activity; settings: lettuce; 1 colony without recombinase
T1 sequence: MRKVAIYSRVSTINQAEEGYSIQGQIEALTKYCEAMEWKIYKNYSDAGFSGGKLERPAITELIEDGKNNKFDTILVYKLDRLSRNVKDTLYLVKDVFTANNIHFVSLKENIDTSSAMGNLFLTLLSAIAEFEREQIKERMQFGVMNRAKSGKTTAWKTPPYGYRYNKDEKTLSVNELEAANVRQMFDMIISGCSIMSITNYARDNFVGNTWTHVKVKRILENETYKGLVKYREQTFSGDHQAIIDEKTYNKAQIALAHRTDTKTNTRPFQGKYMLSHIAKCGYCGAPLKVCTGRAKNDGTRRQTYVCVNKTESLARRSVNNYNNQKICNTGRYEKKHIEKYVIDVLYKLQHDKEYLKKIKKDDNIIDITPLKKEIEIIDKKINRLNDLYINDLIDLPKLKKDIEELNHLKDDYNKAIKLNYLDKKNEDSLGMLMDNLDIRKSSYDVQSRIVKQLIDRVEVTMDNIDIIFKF

[2] = target: SPβc2 serine recombinase (SPβc2-HA-NLS) (Bacillus subtilis phage SPβc2) (UniProt O32006); experiment: cell_activity; settings: lettuce initial screen; attP gave 27; background level
Sequence of SPβc2 serine recombinase (SPβc2-HA-NLS) (Bacillus subtilis phage SPβc2) (O32006 whole entry): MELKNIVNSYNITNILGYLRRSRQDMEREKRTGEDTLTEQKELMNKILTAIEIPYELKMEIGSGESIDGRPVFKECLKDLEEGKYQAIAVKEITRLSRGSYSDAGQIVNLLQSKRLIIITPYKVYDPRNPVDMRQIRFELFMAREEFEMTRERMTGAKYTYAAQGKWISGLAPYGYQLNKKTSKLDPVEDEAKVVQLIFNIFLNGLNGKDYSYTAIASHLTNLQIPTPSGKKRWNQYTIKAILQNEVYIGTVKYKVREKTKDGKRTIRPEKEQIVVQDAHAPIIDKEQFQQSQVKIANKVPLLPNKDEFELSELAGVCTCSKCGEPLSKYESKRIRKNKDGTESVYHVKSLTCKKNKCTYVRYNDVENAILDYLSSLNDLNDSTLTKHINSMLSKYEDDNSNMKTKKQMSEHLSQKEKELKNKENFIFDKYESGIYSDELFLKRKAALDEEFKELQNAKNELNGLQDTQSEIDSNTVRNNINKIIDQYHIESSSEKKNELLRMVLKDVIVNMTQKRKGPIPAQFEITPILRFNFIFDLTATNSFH

ATTTTTGTATCCAGTTCAATGGATATTTGATATAATCGTCTTAAAAAGGAGGTCGTGAAATGGATAAAAAAATACAGCGTTTTTCATGTACAACTATACTAGTTGTAGTGCCTAAATAATGCTTTTAAAACTTAAAAATAATATCGATGTTATCCATAGTAACCTCGACTCTATCTATCAATTGCTTAACTATCCTAGAT (double strand) [SF370 attP]
activity (GFP+ Kan resistant colonies) [1]: 4

siteless reporter plasmid
activity [2]: 1 GFP+ colony
